Data published in patent publication US20140023641A1 (MERCK SERONO S A, published 2014).
Residue numbers refer to the chain shown, from its start. Numbers in names are those of the source.

B1: anti-GM-CSF 4K21 hIgG1 K antibody (MSB0010259), recombinant chimeric 4K21 (antibody, V domains shown)
VH: EVQLVESGGGLVKSGGSLKLSCAASGFAFSAYDMSWVRQTPEKRLELVAYISSGGSSFYYPDTVKGRFTISRDNAKNTLYLQMSSLKSEDTAMYYCTRHLGFDYWGQGTTLTVSS
VL: DVVMTQTPLSLPVSLGDQASISCRSSQSLVNSNGNTYLHWFLQKPGQSPKLLIYKVSNRFSGVPDRFSGSGSGTDFTLKISRVEAEDLGVYFCSQSTHVPPTFGGGTKLEIK
notes: Murine variable domains fused to human constant IgG1 heavy chain and kappa light chain domains; also called parental chimeric 4K21
B2: murine hybridoma-derived 4K21 antibody (antibody, V domains shown)
VH: B1 VH
VL: B1 VL
notes: also called murine 4K21; murine monoclonal antibody 4K21
B3: humanized parental anti-GM-CSF 4K21 VH3-07.1AL+VK2-A3.2 hIgG1 K antibody (MSB0010439) (antibody, V domains shown)
VH: EVQLVESGGGLVQPGGSLRLSCAASGFAFSAYDMSWVRQAPGKRLELVAYISSGGSSFYYPDTVKGRFTISRDNAKNSLYLQMNSLRAEDTAVYYCTRHLGFDYWGQGTLVTVSS
VL: DIVMTQSPLSLPVTPGEPASISCRSSQSLVNSNGNTYLHWYLQKPGQSPQLLIYKVSNRFSGVPDRFSGSGSGTDFTLKISRVEAEDVGVYYCSQSTHVPPTFGQGTKVEIK
notes: hIgG1 kappa; also called humanized parental 4K21 hVH hVL; humanized parental 4K21
B4: 4K21 hVH S55K-T62S hVL S27eY-N28I-H34S-N53R-H93F (MSB0010629) (antibody, V domains shown)
VH: B3 VH with S56K, T63S
VL: B3 VL with S32Y, N33I, H39S, N58R, H98F
notes: Tested as IgG ('optimized 4K21 IgGs'); the humanized parent is hIgG1 kappa; also called optimized 4K21 antibody with S27eY; 4K21 (4K21 VH S55K-T62S VL S27eY-N28I-H34S-N53R-H93F)
B5: 4K21 hVH S55K-T62S hVL N28I-H34S-N53R-H93F (MSB0010628) (antibody, V domains shown)
VH: B3 VH with S56K, T63S
VL: B3 VL with N33I, H39S, N58R, H98F
notes: Tested as IgG ('optimized 4K21 IgGs'); the humanized parent is hIgG1 kappa; also called optimized 4K21 antibody; 4K21 (4K21 VH S55K-T62S VL N28I-H34S-N53R-H93F)

Experiments:
[1] = molecular target: T1, human GM-CSF I117 isoform (human, UniProt P04141 18-144); assay: cell-based or functional assay
[2] = molecular target: T2, human GM-CSF T117 isoform (human, UniProt P04141 18-144); assay: cell-based or functional assay
[3] = molecular target: T3, macaca GM-CSF (rhesus, Macaca mulatta; cynomolgus, Macaca fascicularis, identical sequence) (Macaca mulatta / Macaca fascicularis, UniProt Q0MUT8 18-144 (Chlorocebus aethiops entry), limits assumed); assay: cell-based or functional assay
T3 chain: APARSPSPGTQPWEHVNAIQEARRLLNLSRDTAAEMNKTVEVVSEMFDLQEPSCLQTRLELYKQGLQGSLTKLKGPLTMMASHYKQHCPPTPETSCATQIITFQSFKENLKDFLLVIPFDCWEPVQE

[4] = molecular target: T1, human GM-CSF I117 isoform; assay: TF-1 proliferation assay and KinExA
Protocol: To determine potency and affinity of the antibody, Kd measurements and a proliferation bioassay of TF-1 cells were performed. TF-1 is an erythroleukemic cell line from blood, which proliferates in response to e.g. GM-CSF. Kd determination was carried out with the Kinetic Exclusion Assay (KinExA®; Sapidyne Instruments, Inc., Boise, Id., USA).

[5] = molecular target: T1, human GM-CSF I117 isoform; assay: KinExA, affinity in solution, average n = 2
Protocol: (§1) The 4K21 and reference antibodies were incubated at concentration below the expected Kd with serial dilutions of human GM-CSF I117 or T117, or macaca GM-CSF up to equilibrium. The remaining free antibody was measured in a Kinetic exclusion assay with the KinExA® instrument. Kd was calculated by fitting the curve of the signal obtained versus the GM-CSF concentrations. The average of two experiments using different IgG concentrations was calculated.

[6] = molecular target: T2, human GM-CSF T117 isoform; assay: KinExA, affinity in solution, average n = 2
Protocol: as §1

[7] = molecular target: T3, macaca GM-CSF (rhesus, Macaca mulatta; …); assay: KinExA, affinity in solution, average n = 2
Protocol: as §1

[8] = molecular target: T2, human GM-CSF T117 isoform; assay: KinExA, affinity in solution; largest Kd ratio across the three GM-CSF targets, by Table 3 hGM-CSF T117 (174 pM) against hGM-CSF I117 (17 pM)
Protocol: as §1

[9] = molecular target: T2, human GM-CSF T117 isoform; assay: cell-based or functional assay; remark: listed apart in the source
[10] = molecular target: T3, macaca GM-CSF (rhesus, Macaca mulatta; …); assay: cell-based or functional assay
[11] = molecular target: T1, human GM-CSF I117 isoform; assay: cell-based or functional assay; remark: listed apart in the source
[12] = molecular target: T2, human GM-CSF T117 isoform; assay: cell-based or functional assay; remark: listed apart in the source
[13] = molecular target: T3, macaca GM-CSF (rhesus, Macaca mulatta; …); assay: cell-based or functional assay
[14] = molecular target: T1, human GM-CSF I117 isoform; assay: cell-based or functional assay; remark: listed apart in the source
[15] = molecular target: T2, human GM-CSF T117 isoform; assay: cell-based or functional assay; remark: listed apart in the source
human GM-CSF A117 mutant = molecular target: T4, human GM-CSF A117 mutant (human, UniProt P04141 18-144); assay: competition ELISA: antibody binding to coated human GM-CSF, soluble human GM-CSF A117 as competitor (one condition, concentration not given)
T4 construct: also called hGM-CSF A117
Excerpt: Detection of humanized parental anti-GM-CSF 4K21 binding to coated wild-type GM-CSF is competed away by soluble […]. Binding of all optimized 4K21 antibodies to the GM-CSF coated wells is not affected anymore by the presence of A117 protein in solution.

[16] = molecular target: T3, macaca GM-CSF (rhesus, Macaca mulatta; …); assay: KinExA, affinity in solution; largest Kd ratio across the three GM-CSF targets, by Table 3 macaca (11 pM) against hGM-CSF I117 (4 pM)
Protocol: as §1

Binder | Fold improvement of humanized parental 4K21 on I117 (TF-1 proliferation IC50) [1] [fold] | IC50 (pM), inhibition of GM-CSF induced TF-1 proliferation (32 pM GM-CSF, average n = 3) [1] [pM] | Fold human T117/I117 (TF-1 proliferation IC50) [2] [fold] | Fold improvement of humanized parental 4K21 on T117 (TF-1 proliferation IC50) [2] [fold] | IC50 (pM), inhibition of GM-CSF induced TF-1 proliferation (32 pM GM-CSF, average n = 3) [2] [pM] | Fold improvement of humanized parental 4K21 on macaca (TF-1 proliferation IC50) [3] [fold] | Fold macaca/human I117 (TF-1 proliferation IC50) [3] [fold] | IC50 (pM), inhibition of GM-CSF induced TF-1 proliferation (32 pM GM-CSF, average n = 3) [3] [pM] | fold preference for GM-CSF I117 versus T117 [4] [fold] | Kd [5] [pM] | Kd [6] [pM] | Kd [7] [pM] | IC50 (pM), inhibition of GM-CSF induced IL-8 secretion in U937 cells (65 pM GM-CSF, n = 2) [11] [pM] | IC50 (pM), inhibition of GM-CSF induced IL-8 secretion in U937 cells (65 pM GM-CSF, n = 2) [12] [pM] | IC50 (pM), inhibition of GM-CSF induced IL-8 secretion in U937 cells (65 pM GM-CSF, n = 2) [13] [pM] | Emax (%), inhibition of CD11b upregulation on neutrophils [14] [%] | IC50 (nM), inhibition of CD11b upregulation on neutrophils [14] [nM] | Emax (%), inhibition of CD11b upregulation on neutrophils [15] [%] | IC50 (nM), inhibition of CD11b upregulation on neutrophils [15] [nM] | binding result (human GM-CSF A117 mutant) | other results
B1 | 0.9 | 130 | 10.8 | 1 | 1410 | 0.7 | 9.3 | 1220 | > 10 | 17 | 174 | 104 | – | – | – | – | – | – | – | – | fold affinity difference between the 2 hGM-CSF isoforms and the macaca ortholog [8]: ≤ 10 fold
B2 | – | – | – | – | – | – | – | – | > 10 | – | – | – | – | – | – | – | – | – | – | – | –
B3 | 1 | 121 | 11.6 | 1 | 1400 | 1 | 6.6 | 793 | > 10 | 21 | 164 | 63 | 170 | 930 | 1120 | 65 | 3.06 | 68 | 31.6 | – | fold worse IC50 on T117 than on I117, CD11b upregulation in neutrophils [9]: 10 fold; fold less efficient neutralization than on human GM-CSF (TF-1 proliferation assay) [10]: < 10 fold
B4 | 4.4 | 28 | 1.6 | 32 | 44 | 19 | 1.5 | 42 | – | – | – | – | 311 | 354 | 286 | – | – | – | – | binds | –
B5 | 6.6 | 18 | 1.2 | 63 | 22 | 11 | 3.9 | 72 | – | 4 | 7 | 11 | 257 | 181 | 501 | 84 | 1.65 | 97 | 1.98 | binds | fold affinity difference between the 2 hGM-CSF isoforms and the macaca ortholog [16]: < 3 fold
